Measurements from PMC10541312 (The Journal of Experimental Medicine, 2023).
Where a chain is given by its changes, count along the chain named. Numbers in names are those of the source.

Key:
Test in all cases: BLI; biotinylated CD123 ECD wt and variants captured on streptavidin biosensors; IL-3 as analyte, 500 to 7.8 nM in PBS pH7.4; association 300 s; steady-state analysis
Conditions in all cases: both partners purified
[1] = molecular target: T1, CD123 S59E ECD (amino acids 19–305), soluble protein (human, UniProt P26951 19-305, S59E, biotinylated (Biotinylation kit Type B) in the IL-3 BLI only)
T1 construct: human CD123 extracellular domain (ECD; amino acids 19–305); source: produced and purified by Icosagen
T1 sequence (looked up): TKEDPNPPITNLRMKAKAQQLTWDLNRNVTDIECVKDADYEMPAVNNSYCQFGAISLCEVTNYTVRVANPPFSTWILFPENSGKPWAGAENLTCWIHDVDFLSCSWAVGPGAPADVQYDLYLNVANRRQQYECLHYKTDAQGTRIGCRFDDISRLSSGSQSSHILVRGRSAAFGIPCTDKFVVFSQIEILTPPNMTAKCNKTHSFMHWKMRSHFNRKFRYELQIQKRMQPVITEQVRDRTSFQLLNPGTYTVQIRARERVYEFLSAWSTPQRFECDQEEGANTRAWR

[2] = molecular target: T2, CD123 S59R ECD (amino acids 19–305), soluble protein (human, UniProt P26951 19-305, S59R, biotinylated (Biotinylation kit Type B) in the IL-3 BLI only)
T2 construct: human CD123 extracellular domain (ECD; amino acids 19–305); source: produced and purified by Icosagen
T2 sequence (looked up): T1 sequence (looked up) with E41R

[3] = molecular target: T3, CD123 S59P ECD (amino acids 19–305), soluble protein (human, UniProt P26951 19-305, S59P, biotinylated (Biotinylation kit Type B) in the IL-3 BLI only)
T3 construct: human CD123 extracellular domain (ECD; amino acids 19–305); source: produced and purified by Icosagen
T3 sequence (looked up): T1 sequence (looked up) with E41P

[4] = molecular target: T4, CD123 R84T ECD (amino acids 19–305), soluble protein (human, UniProt P26951 19-305, R84T, biotinylated (Biotinylation kit Type B) in the IL-3 BLI only)
T4 construct: human CD123 extracellular domain (ECD; amino acids 19–305); source: produced and purified by Icosagen
T4 sequence (looked up): T1 sequence (looked up) with E41S, R66T

[5] = molecular target: T5, CD123 E51A ECD (amino acids 19–305), soluble protein (human, UniProt P26951 19-305, E51A, biotinylated (Biotinylation kit Type B) in the IL-3 BLI only)
T5 construct: human CD123 extracellular domain (ECD; amino acids 19–305); source: produced and purified by Icosagen
T5 sequence (looked up): T1 sequence (looked up) with E33A, E41S

[6] = molecular target: T6, CD123 S59Y ECD (amino acids 19–305), soluble protein (human, UniProt P26951 19-305, S59Y, biotinylated (Biotinylation kit Type B) in the IL-3 BLI only)
T6 construct: human CD123 extracellular domain (ECD; amino acids 19–305); source: produced and purified by Icosagen
T6 sequence (looked up): T1 sequence (looked up) with E41Y

Measured: binding result

B1: IL-3 (ligand, human, UniProt P08700 20-152, looked up)
chain: APMTQTTPLKTSWVNCSNMIDEIITHLKQPPLPLLDFNNLNGEDQDILMENNLRRPNLEAFNRAVKSLQNASAIESILKNLLPCLPLATAAPTRHPIHIKDGDWNEFRRKLTFYLKTLENAQAQQTTLSLAIF
notes: human interleukin-3, recombinant, Sino Biological PN 11858-H08H; also called interleukin-3; human IL-3; source: bought: Sino Biological (PN 11858-H08H)
binds: all assays above
